The text below walks through data of publication PMC7368010, “Global translation during early development depends on the essential transcription factor PRDM10”.

The target in series [1] is T1, GST-PRDM10 441-880 (central zinc finger array) (UniProt Q3UTQ7 441-880).
T1 sequence: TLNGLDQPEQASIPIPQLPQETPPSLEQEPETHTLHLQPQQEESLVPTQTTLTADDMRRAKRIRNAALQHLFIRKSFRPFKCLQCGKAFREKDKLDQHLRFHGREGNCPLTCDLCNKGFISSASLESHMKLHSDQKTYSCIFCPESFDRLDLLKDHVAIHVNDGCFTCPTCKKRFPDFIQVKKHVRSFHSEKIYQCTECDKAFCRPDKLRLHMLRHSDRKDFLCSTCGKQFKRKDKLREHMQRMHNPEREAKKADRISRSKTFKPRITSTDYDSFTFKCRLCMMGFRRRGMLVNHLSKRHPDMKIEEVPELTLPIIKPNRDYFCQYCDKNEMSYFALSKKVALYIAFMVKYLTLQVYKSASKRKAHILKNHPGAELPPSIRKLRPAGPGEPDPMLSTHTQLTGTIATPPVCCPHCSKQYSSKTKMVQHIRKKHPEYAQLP
Kind of series: competition; EMSA, 20- to 320-fold excess over 10 nM labeled WT probe; 0.4 uM ZnCl2; EMSA: 6 mM HEPES-KOH pH 7.9, 6% glycerol, 100 ug/mL BSA, 0.4 uM ZnCl2, 20 ug/mL poly(dI-dC), room temperature 20 min; 6% native PAGE in 0.25x TBE. Particulars: protein: recombinant; tags: GST; blunt.

For series [2], the target named is T1, GST-PRDM10 441-880 (central zinc finger …). Kind of series: EMSA; 125-1000 nM protein, 10 nM probe; 0.4 uM ZnCl2; EMSA: 6 mM HEPES-KOH pH 7.9, 6% glycerol, 100 ug/mL BSA, 0.4 uM ZnCl2, 20 ug/mL poly(dI-dC), room temperature 20 min; 6% native PAGE in 0.25x TBE. The settings on record: protein: recombinant; tags: GST; label: 5'-biotin; blunt.

B1: WT unlabeled competitor (dsDNA)
DNA 1: CTGGCACAGTGGTCGCGCCCGGCCCGCC
DNA 2: GGCGGGCCGGGCGCGACCACTGTGCCAG
Take B1: in series [1], the binding result was “binds”.

B2: WT probe (dsDNA)
DNA 1: CTGGCACAGTGGTCGCGCCCGGCCCGCC
DNA 2: GGCGGGCCGGGCGCGACCACTGTGCCAG
With B2, the binding result in series [2] is listed as “binds”.
